# Experimental data: patent publication US20090305961
# System: plasminogen
substance,measurement,value
human low molecular weight urokinase-plasminogen activator (LMW-u-PA),"amidolytic activity, chromogenic substrates Chromozyme U and S-2251, absorbance at 405 nm",Cells transfected with pLMW-u-PA showed much higher levels of u-PA activity compared to cells transfected with pSPUC1A
